Source: patent publication US20140227292A1 (PROTHENA BIOSCIENCES, published 2014)

Columns and labels:
[1] = biological target: T1, human MCAM (melanoma cell adhesion molecule), expressed on transfected CHO cells (human, UniProt P43121 24-646); experiment: blocking assay of the re-expressed antibodies (Table 7 'Blocking IC50'; laminin/FACS assay of paragraph 438): % inhibition of laminin 411 binding to hMCAM-expressing CHO cells
T1 construct: also called hMCAM; CD146
T1 chain: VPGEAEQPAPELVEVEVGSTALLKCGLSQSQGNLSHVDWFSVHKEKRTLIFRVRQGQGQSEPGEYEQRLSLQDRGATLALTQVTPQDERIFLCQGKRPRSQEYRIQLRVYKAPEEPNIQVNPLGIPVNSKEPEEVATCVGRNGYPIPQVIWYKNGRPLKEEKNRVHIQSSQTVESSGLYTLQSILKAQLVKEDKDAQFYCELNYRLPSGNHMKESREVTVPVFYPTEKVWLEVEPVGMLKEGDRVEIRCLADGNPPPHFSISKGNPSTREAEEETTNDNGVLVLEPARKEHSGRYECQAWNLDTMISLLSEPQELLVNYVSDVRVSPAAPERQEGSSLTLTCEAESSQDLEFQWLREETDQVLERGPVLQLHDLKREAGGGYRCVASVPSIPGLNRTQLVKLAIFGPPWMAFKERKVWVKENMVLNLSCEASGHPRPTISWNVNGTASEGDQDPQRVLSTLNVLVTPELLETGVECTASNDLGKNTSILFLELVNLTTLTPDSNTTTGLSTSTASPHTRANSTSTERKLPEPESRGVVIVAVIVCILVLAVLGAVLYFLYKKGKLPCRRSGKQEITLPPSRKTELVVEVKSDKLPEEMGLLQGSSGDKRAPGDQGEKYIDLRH
Protocol: Following incubation for 30-45 minutes, the cells were washed and anti-laminin conjugated to AF650 (NovusBio) was added to detect the bound laminin. The cells were run on a flow cytometer to measure the laminin binding signal.

[2] = biological target: recombinant human laminin 411 (Biolamina) (human, UniProt Q16363 25-1823; P07942 22-1786; P11047 34-1609); experiment: SPR, Biacore T200, steady state, Fc-tagged MCAM IgG1-2A captured by anti-Fc, laminin as analyte

B1: chimeric 1749 (antibody, V domains shown)
VH: DVKLVESGGDLVKPGGSLKLSCAASGFTFSSYIMSWVRQTPEKRLEWVATISSGGSSTYYPDSVKGRFTISRDNAKNTLYLQMSSLKSEDTAMYYCTRDDDYDVKVFAYWGQGTLVTVSA
VL: DIVMSQSPSSLAVSAGEKVTMNCKSSRSLLNSRIRKNYLAWYQQKPGQSPKLLIYWASTRESGVPDRFTGSGSGTDFTLTISSVQAEDLAVYYCKQSYNLLTFGAGTKLELK
**Q.** B1 was tested. Which “IC50 (read off the curve)” value [1] did it give?
**A.** The value was about 0.4 µg/mL.

B2: h2107_VH2 + h2107_VL2 (antibody, V domains shown)
VH: QVTLKESGPVLVKPTETLTLTCTVSGFSLTSNGVSWVRQPPGKALEWIAAISSGGSTYYNSAFKSRLSISRDTSKSQVVLTMTNMDPVDTATYYCARHRPFYFDYWGQGTLVTVSS
VL: DIQMTQSPSSLSASVGDRVTITCKGSQNIYKSLAWFQLKPGKVPKLLIYDANSLQTGIPSRFSGSGSGTDFTLTISSLQPEDVATYYCQQYYSGYTFGGGTKVEIK
notes: also called h2107VH2VL2; VH2VL2
**Q.** Which “IC50 (read off the curve)” value [1] does the source give for B2 here?
**A.** The value was about 0.8 µg/mL.

B3: chimeric 2107 (antibody, V domains shown)
VH: QVQLKESGPGLVQSSQTLSLTCTVSGFSLTSNGVSWVRQPPGKGLEWIAAISSGGSTYYNSAFKSRLSISRNTSKSQVLLKMNSLQTEDTGMYFCARHRPFYFDYWGQGVMVTVSS
VL: DIQVTQSPSLLSASVGDRVTLNCKGSQNIYKSLAWFRLKRGEAPKLLIYDANSLQTGIPSRFSGSGSGTDFTLTITSLQPEDVATYFCQQYYSGYTFGAGTKLELK
**Q.** B3 was tested. Which “IC50 (read off the curve)” value [1] did it give?
**A.** Its value is about 0.5 µg/mL.

B4: Recombinant human Fc-tagged MCAM IgG1-2A (human MCAM domains 1 and 2, amino acids 19-242) (Fc fusion)
chain: PRVAGVPGEAEQPAPELVEVEVGSTALLKCGLSQSQGNLSHVDWFSVHKEKRTLIFRVRQGQGQSEPGEYEQRLSLQDRGATLALTQVTPQDERIFLCQGKRPRSQEYRIQLRVYKAPEEPNIQVNPLGIPVNSKEPEEVATCVGRNGYPIPQVIWYKNGRPLKEEKNRVHIQSSQTVESSGLYTLQSILKAQLVKEDKDAQFYCELNYRLPSGNHMKESREVT
notes: also called human MCAM IgG1-2A; MCAM Fc domains 1 and 2; not shown: human Fc tag
**Q.** How did the Kd [2] turn out when B4 was run?
**A.** Its Kd is 66 nM.
